According to publication PMC10783122, “Loss of Bacteroides thetaiotaomicron bile acid-altering enzymes impacts bacterial fitness and the global metabolic transcriptome” (Microbiology Spectrum, 2023):

Tests used:
Experiment in all cases: purified protein
Type in all cases: biochemical, Bacteroides thetaiotaomicron
Conditions in all cases: 5 mM NAD+, 10 mM MOPS, 37 °C, 0.2 nM enzyme
[1] = substrate: C[C@H](CCC(=O)O)[C@H]1CC[C@H]2[C@@H]3[C@H](O)C[C@@H]4C[C@H](O)CC[C@]4(C)[C@H]3CC[C@]12C
[2] = substrate: C[C@H](CCC(=O)NCCS(=O)(=O)O)[C@H]1CC[C@H]2[C@@H]3[C@H](O)C[C@@H]4C[C@H](O)CC[C@]4(C)[C@H]3CC[C@]12C
[3] = substrate: C[C@H](CCC(=O)NCC(=O)O)[C@H]1CC[C@H]2[C@@H]3[C@H](O)C[C@@H]4C[C@H](O)CC[C@]4(C)[C@H]3CC[C@]12C
[4] = substrate: C[C@H](CCC(=O)O)[C@H]1CC[C@H]2[C@@H]3[C@H](O)C[C@@H]4C[C@H](O)CC[C@]4(C)[C@H]3C[C@H](O)[C@]12C

B1: HSDHa (BT_1911), 7α-hydroxysteroid dehydrogenase (Bacteroides thetaiotaomicron VPI-5482) (protein)
chain: MKRFENKVVVITGAAGGIGEATTRRIVSEGGKVVIADLSQERADKLAAELTQAGADVRPIYFSATELQSCKELVDFAMKEYGQIDVLINNVGGTDPKRDLNIEKLDIDYFDEVFHLNLCCTMYLSQQVIPIMTTHGGGNIVNVASISGLTADANGTLYGASKAGVINLTKYIATQMGKKNIRCNAVAPGLVLTPAALDNLNEEVRNIFLGQCATPYLGEPEDVAATIAFLASNDARYITGQTIVVDGGLTIHNPTVELS
notes: full-length codon-optimized gene, pETite C-His, C-terminal hexahistidine tag, E. coli Rosetta (DE3) pLysS, cobalt resin purified
Km [1]: 203.4 ± 24.3 µM | kcat [1]: 4580 ± 375 s⁻¹ | Km [2]: 301.2 ± 60.4 µM | kcat [2]: 4520 ± 681 s⁻¹ | Km [3]: 342.2 ± 104.1 µM | kcat [3]: 4090 ± 292 s⁻¹ | Km [4]: 649.2 ± 167.6 µM | kcat [4]: 4070 ± 195 s⁻¹
